# Measurements reported in article PMC7241105.
# Biological target: SARS-CoV-2 receptor binding domain (RBD) (SARS-CoV-2) (UniProt P0DTC2)
# Test: BLI
substance,measurement,value
CV30 (antibody),Kd,3.6 nM
